The nature of this series: label from the status in PepcDB records.
For the sequence “MESITLDIELLQLPETSPMSMKSNQDFVKKLFDQWLALPETNRLVTSLVNDAKAGVALNVMCGGGSSGTNSGSNSPLASMFPARNGPPLSPRNSTGSPRIARQRTGLSNLSSPLKVVSDHVKELIPQFYFEDGRPPPNDLKEQCIAKINSLFYGHEDGLQLQEFKLVTTEICKVPSFFSTSIFKKVDTNNTGFVKREDFIDYWVKGNMLTKEITSQVFTILKQPDHNYLVQDDFKPVLQELLATHPGLEFLQGTPEFQDRYAETVIYRIYYYINRSGNGHLTLRELKRGNLVDAMQHADEEEDINKVLRYFSYEHFYVIYCKFWELDTDHDFLIDKENLIRYSNHALTYRIVDRIFSQVPRKFTSKTEGKMGYEDFVYFILAEEDKSSEPSLEYWFKCIDLDANGVLTRNELQFFYEEQLHRMECMAQEAVLFEDILCQLFDMVKPEDEGFICLNDLKGSKLSGNVFNILFNLNKFMAFETRDPFLIRQERANPTWTEWDRFAHREYIRLSMEEDVEDASNGSAEAWDDSLEVPF”, the protein production result was “failed”.

“MKWYEQPLHTLSHAQWEALCDGCGQCCLNQLLDEEDNLYSTDVACRLLDTKTASCSDYAHRSERVPACVTLTPDNLDEVYFMPASCAYRLRAEGQPLPQWHPLRHEGSKEPMKKAGYHVAGHCVSEAKFKGDLEDRIVTWPLS”: the protein production result is “failed”.

In the case of “MPEGLATAQAKYNGAAGRAFVEGLPALAAGFLERWELRLDGPSMHGWAALVLPVVRRDGTGAVLKLQILDAETEGEPLALRVWDGDGAVRLLDHDPATGTMLLERLDAGRMLSHVADSREAVLVIARLLAHLTATPAPPGVRRLGDIARGMLERTPGTLERIPDPADRRLVADCAAAVREVVDEPGDRLLHWDLHYENVLAADRAPWIAIDPKPLAGDPGFDLLPALDNRYDPGETRWRFDALTDVLGLDRERARAWSLGRVLQNSLWNVEDGDPLETEQMEIGRLLRDL”, the protein production entry is “failed”.

Consider “MRLIEQAIEKIESGQVTEGLTALEEAAKTANHEMKYTVAETYYELGHLDKAQAIIDELLMLYPDEGGLYTFAAEILIDLNKEDEAIEMLNEIKEQDPAFLQAQLLLADLYQLQSLDEVAEQKLLKAYEVAPDEPIISFGLGEFYLERGDYIKSIPHLKRAKHGGLTNDQVNVSLKLAEAYSGSGQFEEALPHYDEGLKQKLDPHGLFGYGYTAYLLGDYVLAIEQFQALKALDPDFYDPIPVFGEGFRRGKSFRGSNGCFKRGDDRGLEHHHHHH”, for which the protein production result was “not failed”.

With “MNSPTSRPLRRDPLHNALVTTNVLVVLDQLEVAAEPTRRRLVQLLTSGEQTVNNLAAHFPASRSAISQHLRVLTEAGLVTPRKDGRFRYYRLDPQGLAQLRALFDSFWIDELDRLVADATEEAASKGDS”, the protein production entry is “not failed”.

With “APTSSNDTGKTVVAVTACPTGIAHTYMAAEKLQETANKLGVRIKVETNGSRGVENRLTDKEIAEADGVIIAADVQVDMPRFDGKHLIAKPVAAGIHKPEELIKEAISGNAPVYKAESGSEATEST”, the protein production result is recorded as “not failed”.

Turning to “MVNTRNIIRQFTPNWFTTIMGTGVVAIVLGHFSELHTLGAALWLINTCLFCVFCILYMLRWSLFPHEARQIFHHPSMSLFLGAIPMALATLINGLLMYGNTVFGQHLPQLALWLWYIDVVLVISIGWVVPYFMFSRQQHHLHSITAMWLLPIVAAEVAAATGGLLVAEFVHSTQAISILWLSYMLWGMSVLPAFAILSLLILRLALHKLPEKELAISSWLSIGPIGTGALAMMLLGQHAPDVLQSIGMQSFGIFLQQAAKLISLVLLGCGVWWLGIAMFASLHHLKHGIPFNLGWWGLTFPLGVFTLALSQLGQLLGWNAFDHIAVILSVILVGLWSCVAVKTIQGAYRGQLFFSPCLQQLQQQQKACAQSETA”, the protein production result is reported as “failed”.

Consider “MSLQPKLLLVLKGDSNAYWRQVYLGAQKAADEAGVTLLHRSTKDDGDIAGQIQILSYHLSQAPPDALILAPNSAEDLTPSVAQYRARNIPVLVVDSDLAGDAHQGLVATDNYAAGQLAARALLATLDLSKERNIALLRLRAGNASTDQREQGFLDVLRKHDKIRIIAAPYAGDDRGAARSEMLRLLKETPTIDGLFTPNESTTIGALVAIRQSGMSKQFGFIGFDQTEELEAAMYAGEISNLVVQNPEYMGYLAVQRALDLVRGKPIPAFTDTGVRLLQEGHHHHHH”, for which the protein production entry was “not failed”.

“MASFVESGWQYLVTHFSDFQLACIGSFLLHESVFFLSGLPFIFLERQGFLSKYKIQTKNNTPAAQGKCITRLLLYHFSVNLPLMLASYPVFRAMGMRSSFPLPSWKEVSAQILFYFIIEDFVFYWGHRILHSKWLYKNVHSVHHEYATPFGLTSEYAHPAEILFLGFATIVGPALTGPHLITLWLWMVLRVLETVEAHCGYHFPWSLSNFLPLYGGADFHDYHHRLLYTKSGNYSSTFVYMDWIFGTDKGYRRLKTLKENGDMKQT”: the protein production result is reported as “failed”.

Take “MSAQKQEKTNVFLDPSKNEAYFKKRVGMGESFDLGVRKVFILGHEVQLYYVNGLCDTQYIIHLLRELVHLNDKEKESGEVEDIVENRLLNQQVSKAETLDEAVDQVLSGLVAIIVEDAGFAFIIDVRSYPGRTPEEPDTEKVVRGARDGLVENIIVNTALIRRRIRDERLRYKMLHIGERSKTDICLCYLEDVADPDLVEVLKKEIEDVKIDGLPMSDKSVEEFLVGQGYNPFPLVRFTERADVAASHILEGHVIVIVDTSPSVIITPTTLFHHVQHAEEYRQTPAVGTFLRWVRFFGILASTFLLPLWLLFVIHPSLLPDNLSFIGLNKDTHIPIIMQIFLADLGVEFLRMAAIHTPTALSTAMGLIAAVLIGDIAINVGLFSPEVILYVSLSAIGAYTTPSYELSLANKMVKLFMLILVALFKVEGFVIGLTILTIVMTSIRSLRTPYLWPLLPFNGKAFWHVLVRTSVPGGKVRPSIVHPRNRSRQP”: the protein production result was “failed”.

For the sequence “MLGMGVFKQLIKGLYEWLLHSIDVATQHLVAIVLKISVVKYLIKEFHDRFIYFIDLIAQHFIIVALSSFLVLVFGVLIGVLVFYNSKARAFLLPVVNFLYTIPSLALFALFIPVIGVGLKNALLVLVLYGLLPIVHSTYNALKEVREEVIKAAIGLGCNPKELFFKVRFLLAIPQILAGLRIAVVMLVAMAGIGALIGAGGLGQAIFRGLNTQNTTLLVAGSLIIALFSVLADKFVSVFQHENALQRLFSQNATKKQKRRVYTNLAVFLFLLLASALWLIPRNAIEEKPLVVATKPSSEQYILGEILSLLLEKHHIPIKRAFGIGGGTMNIHPALIRGDFDLYVEYTGTAWVNTLKNPLTQKVDFETIKKRYEKEFNLLWVGLLGFNNTYSLAISKEDAQKYAIETFSDLAFHSPNFDFGAEFDFFEREDAFKGLVKAYRFHFRSLHEMDINLRYKSFESHKINALDVFTTDAQIKELDLKVLKDDKGFFPNYQAGIVIRKEIVKKYPEALEILEKLDSKISDEKMQDLNYQVEVLKKSPQIVAKDFLERLGL”, the protein production entry is listed as “failed”.

Consider “MLTNSINYSELSDVAAFVCVVQTGSFTAAAEQLNTSKSVISKYITRLEKRLGVKLLARTTRRLTLTEIGRTFYEGSRQGLEAIDNAEEAVSFLQGKPRGTLKINAPLSFGALHIAPALEEFIHRYPEMQIDLRFDDKKIDMIKDGFDLTVRITHQLEGNLIARRIAPCHHALVAAPNYLAKRGTPKRPEDLVAHNVITYQYQQSPWEWEFTAAKSKPKRVRVNGSVQMNNSLAIREAVLAGVGISRMPTFAVGEDIKSGRLIQLLPKYSLLEHSIYLVFPERNHMAPKTRAFIDYMVKIMEGKPSWDRF”, for which the protein production result is “failed”.

On to “MAKKRESPKLIKIKDAIKLINQQVSLIGIVLEQREPKQCRNNDWICTLRIIDDTYPSPGLTVNVFSKTLEQLPQIKNHDDMILFTRIKMQTFDSGERVNAACSRWVSSFALFEGVDFVCYQCSTNFHEEEALYKSAMDDLRKVFAGCSQVIKAMQSISYRTKPCSEVFSFLREIKIGKRFDLVCRILHADEDTSAVFVWDGTDAPPASILAKRSEEDKAFSSLSVHTLLSRDVLLSFPTVGTILRVHLSSHLFYRVKPGDWVKLYHLLCEVDRGSWVIKVTSSTKVHHLAQDDRLVEKIMRIYDKRLSSKLGHISFWCFPSPPGLTETDDNCAPFVTLMDIITFPKVTCKYRCIVRVVAAYPWQVEDFCSDENRRHHQVLLTLEDSTATLEAFLCNKDAEYFWGLGFQDTETLRKKRNWLLGIRESSNFVAPRNPPWIECCILSYYTNKADPWNTRLYRIFGTRLLH”, for which the protein production entry was “failed”.

In the case of “MFISDKSRPTDFYKDDHHNSSTTSTTRDMMIDVLTTTNESVDLQSHHHHNHHNHHLHQSQPQQQILLGESSGEDHEVKAPKKRAETWVQDETRSLIMFRRGMDGLFNTSKSNKHLWEQISSKMREKGFDRSPTMCTDKWRNLLKEFKKAKHHDRGNGSAKMSYYKEIEDILRERSKKVTPPQYNKSPNTPPTSAKVDSFMQFTDKGFDDTSISFGSVEANGRPALNLERRLDHDGHPLAITTAVDAVAANGVTPWNWRETPGNGDDSHGQPFGGRVITVKFGDYTRRIGVDGSAEAIKEVIRSAFGLRTRRAFWLEDEDQIIRCLDRDMPLGNYLLRLDDVCKTHLAGLAIRVCHYDESNQLPVHSEEKIFYTEEDYREFLARQGWSSLQVDGFRNIENMDDLQPGAVYRGVR”, the protein production entry is “failed”.

For the sequence “QAIHNDKSLLSPFSELNTDNRTKREESGSTFKEQKGGEFSKLLKQSINELNNTQEQSDKALADMATGQIKDLHQAAIAIGKAETSMKLMLEVRNKAISAYKELLRTQI”, the protein production entry is recorded as “failed”.

As to “MHSQTLRLASYNIQKCVGLDLRRQPRRILQVLDAMGARIAVLQEADKRLPPRPAALPHFVLEEAGWQVVDLGGAGSLGWHGNAVIWKGAGITQLASAHHDLPGFEPRGAVRVEFDTPIGPLRVLGLHLGLLPASRRDQIVHLAHDLERLPPMPTVWAGDFNEWSRQPVLDHLAPMLRFLPARPSFPAPRPLGALDRIAHSPELSAVAHGVFAERPAPIASDHLPVWADLTRPV”, the protein production entry is given as “failed”.

With “MINTMTLDNGVRIITEKMSTVRSVSIGIWVGTGSRYESAEENGISHFLEHMFFKGTNTRSAQEIAEFFDSIGGQVNAFTSKEYTCYYAKVLDDHAGQAIDTLSDMFFHSTFQKEELEKERKVVFEEIKMVDDTPDDIVHDLLSSATYGKHSLGYPILGTVETLNSFNEGMLRHYMDRFYTGDYVVISVAGNVHDELIDKIKETFSQVKPTTYNYQGEKPMFLPNRIVRKKETEQAHLCLGYPGLPIGDKDVYALVLLNNVLGGSMSSRLFQDIREKRGLCYSVFSYHSSFRDSGMLTIYAGTGHDQLDDLVYSIQETTSALAEKGLTEKELENGKEQLKGSLMLSLESTNSRMSRNGKNELLLKKHRSLDEMIEQINAVQKQDVSRLAKILLSASPSISLINANGELPKALIH”, the protein production entry is “failed”.

With “MKHVRSHLPRVLLGLMISVSLVLAGCANNGTGSSMLGGSGTDPDPRLTKSTDSSFFSTSGLTACAAAAGVGILACAVASPSDKVKCMVVAGIAACGVAMGANYYYDYRRSKYSNTAQRLQLMNDDVKADTEKVAQRTYTLQQVINDDKERIAGIQKSIKTKTLDKAKAQQEIASVDSNLAQMNKDLTGMRSKVAEYKKTADLERASDGGTQVTAIDGEISKMNSKVASLQKEVDGLYSQRQAITLG”, the protein production entry is on record as “failed”.

For the sequence “MTYKDYTGLDRTELLSKVRHMMSDKRFNHVLGVERAAIELAERYGYDKEKAGLAALLHDYAKELSDDEFLRLIDKYQPDPDLKKWGNNIWHGLVGIYKIQEDLAIKDQDILAAIAKHTVGSAQMSTLDKIVYVADYIEHNRDFPGVEEARELAKVDLNKAVAYETARTVAFLASKAQPIYPKTIETYNAYIPYLD”, the protein production entry was “not failed”.

In the case of “MTGAVETESMKTVRIREKIKKFLGDRPRNTAEILEHINSTMRHGTTSQQLGNVLSKDKDIVKVGYIKRSGILSGGYDICEWATRNWVAEHCPEWTEGQPIILNEEGDFTLGPLPE”, the protein production result is given as “not failed”.

The values above are taken from a protein production outcome set (Wang et al. 2014).
